This note sets out measurements from patent US20220324969A1 (MYTHIC THERAPEUTICS, published 2022).

For the assay, the target named is CD33 (Sino Biological, Cat #12238-H08H) (UniProt P20138 18-259). As to the kind of experiment: BLI, IgG captured on anti-human Fc sensor, 50 nM CD33, pH 7.4 vs pH 5.4.

Where a chain is given by its changes, count along the chain named. Names and notes keep the numbering of the source.

Chain of CD33 (Sino Biological, Cat #12238-H08H) (P20138 18-259 limits assumed): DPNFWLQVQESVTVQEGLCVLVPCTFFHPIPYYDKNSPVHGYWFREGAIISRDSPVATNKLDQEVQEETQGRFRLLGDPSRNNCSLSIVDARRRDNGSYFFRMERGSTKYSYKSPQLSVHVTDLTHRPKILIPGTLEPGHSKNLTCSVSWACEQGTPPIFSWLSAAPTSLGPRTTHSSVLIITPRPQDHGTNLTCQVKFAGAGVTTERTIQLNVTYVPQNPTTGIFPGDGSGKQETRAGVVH

B1: MYT1166 (antibody, V domains shown)
VH: EVQLVQSGAEVKKPGSSVKVSCKASGYTITDHNIHWVRQAPGQSLEWIGYIHPYNGGTDYNQKFKNRATLTVDNPTNTAYMELSSLRSEDTDFYYCVNGNPWLAYWGQGTLVTVSS
VL: DIQLTQSPSTLSASVGDRVTITCRASESLDNYGIRFLTWFQQKPGKAPKLLMYAASNQGSGVPSRFSGSGSGTEFTLTISSLQPDDFATYYCQQTKEVPWSFGQGTKVEVK
notes: IgG; gemtuzumab VH combination #5 (S32H+Y52H)
As to B1, the binding result is on record as “binds”.

B2: MYT1180 (antibody, V domains shown)
VH: B1 VH with H52Y, Y54H, G57H
VL: B1 VL
notes: IgG; gemtuzumab VH combination #19 (S32H+Y54H+G57H)
With B2, the binding result was “binds”.

B3: MYT1617 (antibody, V domains shown)
VH: B1 VH with H32S, H52Y
VL: B1 VL with V98H
notes: IgG; gemtuzumab VL variant #28 (V98H)
With B3, the binding result is listed as “binds”.

B4: MYT1169 (antibody, V domains shown)
VH: B1 VH with H32S, Y54H
VL: B1 VL
notes: IgG; gemtuzumab VH combination #8 (Y52H+Y54H)
As for B4, the binding result is reported as “binds”.

B5: MYT1178 (antibody, V domains shown)
VH: B1 VH with Y54H
VL: B1 VL
notes: IgG; gemtuzumab VH combination #17 (S32H+Y52H+Y54H)
B5: the binding result is on record as “binds”.

B6: MYT1602 (antibody, V domains shown)
VH: B1 VH with H32S, H52Y
VL: B1 VL with F36H
notes: IgG; gemtuzumab VL variant #13 (F36H)
For the molecule B6, the binding result is listed as “binds”.

B7: MYT1167 (antibody, V domains shown)
VH: B1 VH with H52Y, Y54H
VL: B1 VL
notes: IgG; gemtuzumab VH combination #6 (S32H+Y54H)
As to B7, the binding result is on record as “binds”.

B8: MYT1590 (antibody, V domains shown)
VH: B1 VH with H32S, H52Y
VL: B1 VL with R24H
notes: IgG; gemtuzumab VL variant #1 (R24H)
As to B8, the binding result is listed as “binds”.

B9: MYT1606 (antibody, V domains shown)
VH: B1 VH with H32S, H52Y
VL: B1 VL with A55H
notes: IgG; gemtuzumab VL variant #17 (A55H)
In the case of B9, the binding result is given as “binds”.

B10: MYT1610 (antibody, V domains shown)
VH: B1 VH with H32S, H52Y
VL: B1 VL with G59H
notes: IgG; gemtuzumab VL variant #21 (G59H)
Turning to B10, the binding result is “binds”.

B11: MYT1611 (antibody, V domains shown)
VH: B1 VH with H32S, H52Y
VL: B1 VL with S60H
notes: IgG; gemtuzumab VL variant #22 (S60H)
As for B11, the binding result was “binds”.

B12: MYT1613 (antibody, V domains shown)
VH: B1 VH with H32S, H52Y
VL: B1 VL with Q94H
notes: IgG; gemtuzumab VL variant #24 (Q94H)
In the case of B12, the binding result is reported as “binds”.

B13: MYT1608 (antibody, V domains shown)
VH: B1 VH with H32S, H52Y
VL: B1 VL with N57H
notes: IgG; gemtuzumab VL variant #19 (N57H)
For B13, the binding result is listed as “binds”.

B14: MYT1179 (antibody, V domains shown)
VH: B1 VH with G57H
VL: B1 VL
notes: IgG; gemtuzumab VH combination #18 (S32H+Y52H+G57H)
For B14, the binding result is “binds”.

B15: MYT1604 (antibody, V domains shown)
VH: B1 VH with H32S, H52Y
VL: B1 VL with T38H
notes: IgG; gemtuzumab VL variant #15 (T38H)
For the molecule B15, the binding result is “binds”.

B16: MYT1176 (antibody, V domains shown)
VH: B1 VH with I29H, H32S, G57H
VL: B1 VL
notes: IgG; gemtuzumab VH combination #15 (I29H+Y52H+G57H)
Turning to B16, the binding result is “binds”.

B17: MYT1599 (antibody, V domains shown)
VH: B1 VH with H32S, H52Y
VL: B1 VL with G33H
notes: IgG; gemtuzumab VL variant #10 (G33H)
Consider B17, for which the binding result is on record as “binds”.

B18: MYT1181 (antibody, V domains shown)
VH: B1 VH with H32S, Y54H, G57H
VL: B1 VL
notes: IgG; gemtuzumab VH combination #20 (Y52H+Y54H+G57H)
As to B18, the binding result is reported as “binds”.

B19: MYT1605 (antibody, V domains shown)
VH: B1 VH with H32S, H52Y
VL: B1 VL with A54H
notes: IgG; gemtuzumab VL variant #16 (A54H)
Turning to B19, the binding result is “binds”.

B20: MYT1597 (antibody, V domains shown)
VH: B1 VH with H32S, H52Y
VL: B1 VL with N31H
notes: IgG; gemtuzumab VL variant #8 (N31H)
B20: the binding result was “binds”.

B21: MYT1596 (antibody, V domains shown)
VH: B1 VH with H32S, H52Y
VL: B1 VL with D30H
notes: IgG; gemtuzumab VL variant #7 (D30H)
In the case of B21, the binding result is recorded as “binds”.

B22: MYT1171 (antibody, V domains shown)
VH: B1 VH with H32S, H52Y, Y54H, G57H
VL: B1 VL
notes: IgG; gemtuzumab VH combination #10 (Y54H+G57H)
For B22, the binding result is recorded as “binds”.

B23: MYT1614 (antibody, V domains shown)
VH: B1 VH with H32S, H52Y
VL: B1 VL with T95H
notes: IgG; gemtuzumab VL variant #25 (T95H)
On to B23, for which the binding result is “binds”.

B24: MYT1615 (antibody, V domains shown)
VH: B1 VH with H32S, H52Y
VL: B1 VL with K96H
notes: IgG; gemtuzumab VL variant #26 (K96H)
With B24, the binding result was “binds”.

B25: MYT1168 (antibody, V domains shown)
VH: B1 VH with H52Y, G57H
VL: B1 VL
notes: IgG; gemtuzumab VH combination #7 (S32H+G57H)
Take B25: the binding result is listed as “binds”.

B26: MYT1174 (antibody, V domains shown)
VH: B1 VH with I29H, H52Y, G57H
VL: B1 VL
notes: IgG; gemtuzumab VH combination #13 (I29H+S32H+G57H)
As for B26, the binding result is given as “binds”.

B27: MYT1598 (antibody, V domains shown)
VH: B1 VH with H32S, H52Y
VL: B1 VL with Y32H
notes: IgG; gemtuzumab VL variant #9 (Y32H)
Regarding B27, the binding result is recorded as “binds”.

B28: MYT1616 (antibody, V domains shown)
VH: B1 VH with H32S, H52Y
VL: B1 VL with E97H
notes: IgG; gemtuzumab VL variant #27 (E97H)
For B28, the binding result is given as “binds”.

B29: MYT1170 (antibody, V domains shown)
VH: B1 VH with H32S, G57H
VL: B1 VL
notes: IgG; gemtuzumab VH combination #9 (Y52H+G57H)
With B29, the binding result is “binds”.

B30: MYT1594 (antibody, V domains shown)
VH: B1 VH with H32S, H52Y
VL: B1 VL with S28H
notes: IgG; gemtuzumab VL variant #5 (S28H)
Regarding B30, the binding result is on record as “binds”.

B31: MYT1607 (antibody, V domains shown)
VH: B1 VH with H32S, H52Y
VL: B1 VL with S56H
notes: IgG; gemtuzumab VL variant #18 (S56H)
For the molecule B31, the binding result is “binds”.

B32: MYT1609 (antibody, V domains shown)
VH: B1 VH with H32S, H52Y
VL: B1 VL with Q58H
notes: IgG; gemtuzumab VL variant #20 (Q58H)
With B32, the binding result was “binds”.

B33: MYT1620 (antibody, V domains shown)
VH: B1 VH with H32S, H52Y
VL: B1 VL with S101H
notes: IgG; gemtuzumab VL variant #31 (S101H)
Consider B33, for which the binding result is given as “binds”.

B34: MYT1612 (antibody, V domains shown)
VH: B1 VH with H32S, H52Y
VL: B1 VL with Q93H
notes: IgG; gemtuzumab VL variant #23 (Q93H)
With B34, the binding result is listed as “binds”.

B35: MYT1593 (antibody, V domains shown)
VH: B1 VH with H32S, H52Y
VL: B1 VL with E27H
notes: IgG; gemtuzumab VL variant #4 (E27H)
Regarding B35, the binding result is on record as “binds”.

B36: MYT1619 (antibody, V domains shown)
VH: B1 VH with H32S, H52Y
VL: B1 VL with W100H
notes: IgG; gemtuzumab VL variant #30 (W100H)
B36: the binding result is listed as “binds”.

B37: MYT1177 (antibody, V domains shown)
VH: B1 VH with I29H, H32S, H52Y, Y54H, G57H
VL: B1 VL
notes: IgG; gemtuzumab VH combination #16 (I29H+Y54H+G57H)
As for B37, the binding result is reported as “binds”.

B38: MYT1601 (antibody, V domains shown)
VH: B1 VH with H32S, H52Y
VL: B1 VL with R35H
notes: IgG; gemtuzumab VL variant #12 (R35H)
Regarding B38, the binding result was “binds”.

B39: MYT1213 (antibody, V domains shown)
VH: QVQLQQPGAEVVKPGASVKMSCKASHYTFTSYYIHWIKQTPGQGLEWVGVIYPGNDDISYNQKFQGKATLTADKSSTTAYMQLSSLTSEDSAVYYCAREVRLRYFDVWGQGTTVTVSS
VL: EIVLTQSPGSLAVSPGERVTMSCKSSQSVFFSSSQKNYLAWYQQIPGQSPRLLIYWASTRESGVPDRFTGSGSGTDFTLTISSVQPEDLAIYYCHQYLSSRTFGQGTKLEIK
notes: IgG; IMGN779 VH variant #1 (G26H)
For the molecule B39, the binding result is recorded as “binds”.

B40: MYT1215 (antibody, V domains shown)
VH: B39 VH with H26G, T28H
VL: B39 VL
notes: IgG; IMGN779 VH variant #3 (T28H)
Regarding B40, the binding result is listed as “binds”.

B41: MYT1216 (antibody, V domains shown)
VH: B39 VH with H26G, F29H
VL: B39 VL
notes: IgG; IMGN779 VH variant #4 (F29H)
For the molecule B41, the binding result is recorded as “binds”.

B42: MYT1214 (antibody, V domains shown)
VH: B39 VH with H26G, Y27H
VL: B39 VL
notes: IgG; IMGN779 VH variant #2 (Y27H)
For the molecule B42, the binding result is “binds”.
